# In article PMC6708749:
# How the values were obtained:
# Test in all cases: SEC
# [1] = target: ELIC-α1GABAAR chimera, Q242L mutant (Erwinia chrysanthemi | human)
# [2] = target: ELIC-α1GABAAR chimera, Q242W mutant (Erwinia chrysanthemi | human)
# [3] = target: ELIC-α1GABAAR chimera, W246L mutant (Erwinia chrysanthemi | human)
# [4] = target: ELIC-α1GABAAR chimera, WT (Erwinia chrysanthemi | human)
substance,measurement,setting,value
"ELIC-α1GABAAR chimera, Q242L mutant",stoichiometry N,[1],5
"ELIC-α1GABAAR chimera, Q242W mutant",stoichiometry N,[2],5
"ELIC-α1GABAAR chimera, W246L mutant",stoichiometry N,[3],5
"ELIC-α1GABAAR chimera, WT",stoichiometry N,[4],5
ELIC-β3GABAAR chimera,stoichiometry N,[4],5
